Assay results: patent publication US20240209096A1 (INVETX, published 2024)

T1: canine FcRn (soluble large subunit p51 isoform X2 with 6xHis-tag, co-expressed with canine … (canine))
T1 construct: Heterodimer made by co-expression in CHO cells, purified on HISTRAP FF, >95% pure by SEC; Both entries hold a 19-residue signal peptide at the N-terminus that should be removed (residues 1-19); also called FcRn complex
T1 chain: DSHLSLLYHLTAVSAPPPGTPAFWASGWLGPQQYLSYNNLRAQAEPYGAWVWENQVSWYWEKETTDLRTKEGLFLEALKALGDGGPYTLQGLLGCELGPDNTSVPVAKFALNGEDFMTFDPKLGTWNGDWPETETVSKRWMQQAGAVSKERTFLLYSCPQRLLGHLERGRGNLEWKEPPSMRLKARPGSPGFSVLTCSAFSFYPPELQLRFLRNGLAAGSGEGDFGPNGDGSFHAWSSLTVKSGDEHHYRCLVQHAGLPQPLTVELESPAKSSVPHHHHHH
T1 b2m: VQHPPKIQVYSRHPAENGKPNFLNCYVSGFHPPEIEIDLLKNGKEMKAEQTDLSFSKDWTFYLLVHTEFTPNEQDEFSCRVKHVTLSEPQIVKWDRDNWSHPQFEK


Target: T1, canine FcRn (soluble large subunit p51 …)
Assay: SPR, IgG on protein L chip, FcRn in flow, pH 5.9, 1:1 fit
Method: The canine FcRn binding experiments at pH 5.9 and pH 7.4 were completed on a BIACORE™ T200 instrument. A Series S Protein L Sensor chip (Cytiva, Cat. No. BR29205137) was used to capture the antibody variants via the kappa (κ) light chain. The canine variants were captured onto the protein L chip at a flow rate of 10 μL/min for 60 seconds. Approximately 250 RUs of the variants were captured. For the low pH binding condition, 1×PBX-P+ (Cytiva, Cat. No. 28995084) was adjusted to pH 5.9. The canine FcRn was flowed over the sensor chip at 30 μL/min for 120 seconds contact time and 600 seconds dissociation time. Regeneration of the flow cells was completed by flowing over 10 mM glycine, pH 1.7 at 30 μL/min for 30 seconds. The data were evaluated by the BIACORE™ T200 Evaluation software (version 3.2.1) by fitting to a 1:1 kinetic interaction model.

Binder | Kd [nM] | koff [s⁻¹] | kon [M⁻¹ s⁻¹]
IgG with canine IgGB Fc variant L252M (antibody, Full chains; canine IgGB constant domain with MALA mutations; variable domains of WO 2023/97275) heavy: EVQLVESGGDLVAPSQSLSITCTVSGMSLTSNSISWVRQPPGRGLEWLGTIWSNGGTDYTDAVKGRFTISRDNAKNTVYLQMNSLRAEDTAMYYCAQIYYYDADYLHWYFDFWGQGTLVTVSSASTTAPSVFPLAPSCGSTSGSTVALACLVSGYFPEPVTVSWNSGSLTSGVHTFPSVLQSSGLYSLSSMVTVPSSRWPSETFTCNVAHPASKTKVDKPVPKRENGRVPRPPDCPKCPAPEAAGGPSVFIFPPKPKDTLMIARTPEVTCVVVDLDPEDPEVQISWFVDGKQMQTAKTQPREEQFNGTYRVVSVLPIGHQDWLKGKQFTCKVNNKALPSPIERTISKARGQAHQPSVYVLPPSREELSKNTVSLTCLIKDFFPPDIDVEWQSNGQQEPESKYRTTPPQLDEDGSYFLYSKLSVDKSRWQRGDTFICAVMHEALHNHYTQESLSHSPG light: EIVMTQSPASLSASQEEKVTITCRASEGISNNLAWYQQKPGQAPKLLIHATSSLQTGVPSRFSGSGSGTDFTLTISSLQPEDFATYYCQQGYQFPLTFGQGTKVEIKRNDAQPAVYLFQPSPDQLHTGSASVVCLLNSFYPKDINVKWKVDGVIQDTGIQESVTEQDKDSTYSLSSTLTMSSTEYLSHELYSCEITHKSLPSTLIKSFQRSECQRVD | 40.7 | 0.00335 | 82400
IgG with canine IgGB Fc variant L252M, A426Y (antibody, Full chains; canine IgGB constant domain with MALA mutations; variable domains of WO 2023/97275) heavy: EVQLVESGGDLVAPSQSLSITCTVSGMSLTSNSISWVRQPPGRGLEWLGTIWSNGGTDYTDAVKGRFTISRDNAKNTVYLQMNSLRAEDTAMYYCAQIYYYDADYLHWYFDFWGQGTLVTVSSASTTAPSVFPLAPSCGSTSGSTVALACLVSGYFPEPVTVSWNSGSLTSGVHTFPSVLQSSGLYSLSSMVTVPSSRWPSETFTCNVAHPASKTKVDKPVPKRENGRVPRPPDCPKCPAPEAAGGPSVFIFPPKPKDTLMIARTPEVTCVVVDLDPEDPEVQISWFVDGKQMQTAKTQPREEQFNGTYRVVSVLPIGHQDWLKGKQFTCKVNNKALPSPIERTISKARGQAHQPSVYVLPPSREELSKNTVSLTCLIKDFFPPDIDVEWQSNGQQEPESKYRTTPPQLDEDGSYFLYSKLSVDKSRWQRGDTFICYVMHEALHNHYTQESLSHSPG light: EIVMTQSPASLSASQEEKVTITCRASEGISNNLAWYQQKPGQAPKLLIHATSSLQTGVPSRFSGSGSGTDFTLTISSLQPEDFATYYCQQGYQFPLTFGQGTKVEIKRNDAQPAVYLFQPSPDQLHTGSASVVCLLNSFYPKDINVKWKVDGVIQDTGIQESVTEQDKDSTYSLSSTLTMSSTEYLSHELYSCEITHKSLPSTLIKSFQRSECQRVD | 57.4 | 0.0581 | 1.01e+06
IgG with canine IgGB Fc variant L252M, T286F (antibody, Full chains; canine IgGB constant domain with MALA mutations; variable domains of WO 2023/97275) heavy: EVQLVESGGDLVAPSQSLSITCTVSGMSLTSNSISWVRQPPGRGLEWLGTIWSNGGTDYTDAVKGRFTISRDNAKNTVYLQMNSLRAEDTAMYYCAQIYYYDADYLHWYFDFWGQGTLVTVSSASTTAPSVFPLAPSCGSTSGSTVALACLVSGYFPEPVTVSWNSGSLTSGVHTFPSVLQSSGLYSLSSMVTVPSSRWPSETFTCNVAHPASKTKVDKPVPKRENGRVPRPPDCPKCPAPEAAGGPSVFIFPPKPKDTLMIARTPEVTCVVVDLDPEDPEVQISWFVDGKQMQFAKTQPREEQFNGTYRVVSVLPIGHQDWLKGKQFTCKVNNKALPSPIERTISKARGQAHQPSVYVLPPSREELSKNTVSLTCLIKDFFPPDIDVEWQSNGQQEPESKYRTTPPQLDEDGSYFLYSKLSVDKSRWQRGDTFICAVMHEALHNHYTQESLSHSPG light: EIVMTQSPASLSASQEEKVTITCRASEGISNNLAWYQQKPGQAPKLLIHATSSLQTGVPSRFSGSGSGTDFTLTISSLQPEDFATYYCQQGYQFPLTFGQGTKVEIKRNDAQPAVYLFQPSPDQLHTGSASVVCLLNSFYPKDINVKWKVDGVIQDTGIQESVTEQDKDSTYSLSSTLTMSSTEYLSHELYSCEITHKSLPSTLIKSFQRSECQRVD | 71.8 | 0.0937 | 1.31e+06
IgG with canine IgGB Fc variant L252M, T286L (antibody, Full chains; canine IgGB constant domain with MALA mutations; variable domains of WO 2023/97275) heavy: EVQLVESGGDLVAPSQSLSITCTVSGMSLTSNSISWVRQPPGRGLEWLGTIWSNGGTDYTDAVKGRFTISRDNAKNTVYLQMNSLRAEDTAMYYCAQIYYYDADYLHWYFDFWGQGTLVTVSSASTTAPSVFPLAPSCGSTSGSTVALACLVSGYFPEPVTVSWNSGSLTSGVHTFPSVLQSSGLYSLSSMVTVPSSRWPSETFTCNVAHPASKTKVDKPVPKRENGRVPRPPDCPKCPAPEAAGGPSVFIFPPKPKDTLMIARTPEVTCVVVDLDPEDPEVQISWFVDGKQMQLAKTQPREEQFNGTYRVVSVLPIGHQDWLKGKQFTCKVNNKALPSPIERTISKARGQAHQPSVYVLPPSREELSKNTVSLTCLIKDFFPPDIDVEWQSNGQQEPESKYRTTPPQLDEDGSYFLYSKLSVDKSRWQRGDTFICAVMHEALHNHYTQESLSHSPG light: EIVMTQSPASLSASQEEKVTITCRASEGISNNLAWYQQKPGQAPKLLIHATSSLQTGVPSRFSGSGSGTDFTLTISSLQPEDFATYYCQQGYQFPLTFGQGTKVEIKRNDAQPAVYLFQPSPDQLHTGSASVVCLLNSFYPKDINVKWKVDGVIQDTGIQESVTEQDKDSTYSLSSTLTMSSTEYLSHELYSCEITHKSLPSTLIKSFQRSECQRVD | 90 | 0.111 | 1.23e+06
IgG with canine IgGB Fc variant L252M, A426L (antibody, Full chains; canine IgGB constant domain with MALA mutations; variable domains of WO 2023/97275) heavy: EVQLVESGGDLVAPSQSLSITCTVSGMSLTSNSISWVRQPPGRGLEWLGTIWSNGGTDYTDAVKGRFTISRDNAKNTVYLQMNSLRAEDTAMYYCAQIYYYDADYLHWYFDFWGQGTLVTVSSASTTAPSVFPLAPSCGSTSGSTVALACLVSGYFPEPVTVSWNSGSLTSGVHTFPSVLQSSGLYSLSSMVTVPSSRWPSETFTCNVAHPASKTKVDKPVPKRENGRVPRPPDCPKCPAPEAAGGPSVFIFPPKPKDTLMIARTPEVTCVVVDLDPEDPEVQISWFVDGKQMQTAKTQPREEQFNGTYRVVSVLPIGHQDWLKGKQFTCKVNNKALPSPIERTISKARGQAHQPSVYVLPPSREELSKNTVSLTCLIKDFFPPDIDVEWQSNGQQEPESKYRTTPPQLDEDGSYFLYSKLSVDKSRWQRGDTFICLVMHEALHNHYTQESLSHSPG light: EIVMTQSPASLSASQEEKVTITCRASEGISNNLAWYQQKPGQAPKLLIHATSSLQTGVPSRFSGSGSGTDFTLTISSLQPEDFATYYCQQGYQFPLTFGQGTKVEIKRNDAQPAVYLFQPSPDQLHTGSASVVCLLNSFYPKDINVKWKVDGVIQDTGIQESVTEQDKDSTYSLSSTLTMSSTEYLSHELYSCEITHKSLPSTLIKSFQRSECQRVD | 102 | 0.111 | 1.09e+06
IgG with canine IgGB Fc variant L252M, A426H (antibody, Full chains; canine IgGB constant domain with MALA mutations; variable domains of WO 2023/97275) heavy: EVQLVESGGDLVAPSQSLSITCTVSGMSLTSNSISWVRQPPGRGLEWLGTIWSNGGTDYTDAVKGRFTISRDNAKNTVYLQMNSLRAEDTAMYYCAQIYYYDADYLHWYFDFWGQGTLVTVSSASTTAPSVFPLAPSCGSTSGSTVALACLVSGYFPEPVTVSWNSGSLTSGVHTFPSVLQSSGLYSLSSMVTVPSSRWPSETFTCNVAHPASKTKVDKPVPKRENGRVPRPPDCPKCPAPEAAGGPSVFIFPPKPKDTLMIARTPEVTCVVVDLDPEDPEVQISWFVDGKQMQTAKTQPREEQFNGTYRVVSVLPIGHQDWLKGKQFTCKVNNKALPSPIERTISKARGQAHQPSVYVLPPSREELSKNTVSLTCLIKDFFPPDIDVEWQSNGQQEPESKYRTTPPQLDEDGSYFLYSKLSVDKSRWQRGDTFICHVMHEALHNHYTQESLSHSPG light: EIVMTQSPASLSASQEEKVTITCRASEGISNNLAWYQQKPGQAPKLLIHATSSLQTGVPSRFSGSGSGTDFTLTISSLQPEDFATYYCQQGYQFPLTFGQGTKVEIKRNDAQPAVYLFQPSPDQLHTGSASVVCLLNSFYPKDINVKWKVDGVIQDTGIQESVTEQDKDSTYSLSSTLTMSSTEYLSHELYSCEITHKSLPSTLIKSFQRSECQRVD | 37 | 0.065 | 1.76e+06
